# Laboratory results published in patent US20240398899A1 (priority 2021, published 2024).
# Values joined by “and” are separate entries in the source; they are usually repeats but may differ in a detail not shown here. Equal values may be shown once.
# Legend:
# TNF alpha = assay: Brain biomarker ELISA, scopolamine induced dementia; format: in vivo, Mus musculus (Swiss Albino); conditions: scopolamine 2.5 mg/kg i.p., mice
# Description: (§5) Healthy male Swiss albino mice (n=48) were selected and randomized based on body weight (n=8 per Group) into 6 groups as mentioned in table no-1. The control group G1 was treated intravenously with vehicle daily till the experiment completion. Group G2 was considered as negative control and treated with vehicle. […] Group G4, G5 &G6 animals were treated with the test item recombinant lectin protein having SEQ ID NO: 1 at the dose of 0.5 mg/kg, 0.25 mg/kg and 0.125 mg/kg, respectively. All the test items were given intravenously (i.v) daily at the dose volume of 5 ml/kg for 14 Days. The body weight was recorded daily throughout the experimental period. […] One hour after the last dose of test items (on Day 14) all the animals were injected with scopolamine hydrobromide at the dose of 2.5 mg/kg, i.p., except the normal control group G1. Passive avoidance test was conducted 30 min after scopolamine injection.
# (§6) After passive avoidance test screening models of memory, the animals were sacrificed humanely. The whole brain was carefully removed from the skull and weighed. Brain was dissected into two portions
# (§7) 10% w/v brain homogenate (100 mg/mL) was prepared by homogenizing it in ice-chilled phosphate buffer. The homogenate was subsequently centrifuged using a refrigerated centrifuge at 3000 rpm for 10 min, and the supernatant was separated and used for the biochemical estimations.
# (§8) Following biomarkers was estimated using ELISA kit as per manufacturer's instruction. • Brain NGF (Nerve Growth Factor), CUSABIO, Catalog No. CSB-E04684m • Acetylcholinesterase, CUSABIO, Catalog No. CSB-E17521m • TNF alpha, CUSABIO, Catalog No. CSB-E04741m
# S100b = assay: Parkinson biomarker multiplex analysis/ELISA, MPP+ damaged SH-SY5Y; format: cell-based, human; conditions: MPP + Iodide (2 mM)
# Description: (§1) After overnight incubation as in the previous examples, cells were treated with recombinant lectin protein having SEQ ID NO: 1 at different concentrations ranging from 0.001 μg/ml-1 μg/ml for 24 h for Parkinson disease and 0.01 μg/ml-25 μg/ml for 24 h for Alzheimer's disease. • Parkinson Disease: After 24 h of pre-treatment with recombinant lectin protein having SEQ ID NO: 1, cells were exposed (MPP+) for another 24 h. Cells treated with MPP+Iodide were included as Control. […] The cells treated with Galantamine were included as positive Control.
# (§2) The levels of markers were determined by multiplex analysis as: Cell culture supernatants were diluted (1:2) with Calibrator Diluent. 50 μl of standard or sample was added per well. 50 μl of the microparticle cocktail was added to each well of the microplate and covered with a foil plate sealer. The plate was incubated for 2 hours at room temperature on a horizontal orbital microplate shaker. The plate was washed using a magnetic device designed to accommodate a microplate. Washing was done by applying the magnet to the bottom of the microplate, allowing 1 minute before removing the liquid, filling each well with wash buffer (100 μl) and allowing 1 minute before removing the liquid again. 50 μl of diluted Biotin-Antibody Cocktail was added to each well. Covered the plate with a foil plate sealer and incubated for 1 hour at room temperature on the shaker. Repeated the wash step. 50 μl of diluted Streptavidin-PE was added to each well. The plate was securely covered with a foil plate sealer and incubated for 30 minutes at room temperature on the shaker. Repeated the wash step. The microparticles were resuspended by adding 100 μl of Wash Buffer to each well. The plate was incubated for 2 minutes on the shaker and read within 90 minutes using Magpix® multiplex machine. Levels of biomarkers for Parkinson's and Alzheimer's disease were estimated using Magpix® multiplex machine.
# (§3) For Parkinson's the percent modulation in each sample was determined as follows:
# (§4) [{Concentration of biomarkers(pg/ml) in SEQ ID NO:1+MPP+Iodide treated cells)−Concentration of biomarkers(pg/ml) in Control cells(MPP+Iodide alone treated)}/Concentration of biomarkers(pg/ml) in Control cells(MPP+Iodide alone treated)]*100
# Park7/DJ-1 = assay: as above; format: cell-based, human; conditions: MPP + Iodide (2 mM)
# Description: as §1, §2, §3, §4
# Calbindin D = assay: as above; format: cell-based, human; conditions: MPP + Iodide (2 mM)
# Description: as §1, §2, §3, §4
# Dopamine = assay: as above; format: cell-based, human; conditions: MPP + Iodide (2 mM)
# Description: as §1, §2, §3, §4
# Serotonin = assay: as above; format: cell-based, human; conditions: MPP + Iodide (2 mM)
# Description: as §1, §2, §3, §4
# ICAM1/CD54 = assay: as above; format: cell-based, human; conditions: MPP + Iodide (2 mM)
# Description: as §1, §2, §3, §4
# α-Synuclein = assay: as above; format: cell-based, human; conditions: 0.001 μg/mL to 1 μg/mL, MPP+ iodide
# Description: as §1, §2, §3, §4
# [1] = tested on: Brain NGF (Nerve Growth Factor); assay: Brain biomarker ELISA, scopolamine induced dementia; format: in vivo, Mus musculus (Swiss Albino); conditions: for brain nerve growth factor (NGF) Mean: scopolamine 2.5 mg/kg i.p., mice
# Description: as §5, §6, §7, §8
molecule,measurement,setting,value
SEQ ID NO: 1: variant of the S. rolfsii lectin amino acid sequence (reported as Rec-2 in WO2010/095143) (protein) TYKITVRVYQTNPDAFFHPVEKTVWKYANGGTWTITDDQHVLTMGGSGTSGTLRFHADNGESFTATFGVHNYKRWCDIVTNLAADETGMVINQQYYSQKNREEARERQLSNYQVKNAKGRNFQIVYTEAEGNDLHANLIIG,brain TNF-alpha Mean,TNF alpha; G4: 0.5 mg/kg i.v. qdx14,121.7 pg/mL and 121.73 pg/mL
same,brain TNF-alpha Mean,TNF alpha; G5: 0.25 mg/kg i.v. qdx14,67.65 pg/mL
same,brain TNF-alpha Mean,TNF alpha; G6: 0.125 mg/kg i.v. qdx14,79.53 pg/mL
same,% Change of Biomarkers markers (with respect to Control) S100b,S100b; 0.001 μg/mL,−11%
same,% Change of Biomarkers markers (with respect to Control) S100b,S100b; 0.01 μg/mL,9%
same,% Change of Biomarkers markers (with respect to Control) S100b,S100b; 0.05 μg/mL,−6.7%
same,% Change of Biomarkers markers (with respect to Control) S100b,S100b; 0.1 μg/mL,−6.5%
same,% Change of Biomarkers markers (with respect to Control) S100b,S100b; 1 μg/mL,−11.4%
same,% Change of Biomarkers markers (with respect to Control) Park7/DJ-1,Park7/DJ-1; 0.001 μg/mL,−2.5%
same,% Change of Biomarkers markers (with respect to Control) Park7/DJ-1,Park7/DJ-1; 0.01 μg/mL,−3.6%
same,% Change of Biomarkers markers (with respect to Control) Park7/DJ-1,Park7/DJ-1; 0.05 μg/mL,−7.1%
same,% Change of Biomarkers markers (with respect to Control) Park7/DJ-1,Park7/DJ-1; 0.1 μg/mL,−10.4%
same,% Change of Biomarkers markers (with respect to Control) Park7/DJ-1,Park7/DJ-1; 1 μg/mL,−12.6%
same,% Change of Biomarkers markers (with respect to Control) Calbindin D,Calbindin D; 0.001 μg/mL,9.7%
same,% Change of Biomarkers markers (with respect to Control) Calbindin D,Calbindin D; 0.01 μg/mL,8.2%
same,% Change of Biomarkers markers (with respect to Control) Calbindin D,Calbindin D; 0.05 μg/mL,1.7%
same,% Change of Biomarkers markers (with respect to Control) Calbindin D,Calbindin D; 0.1 μg/mL,6.6%
same,% Change of Biomarkers markers (with respect to Control) Calbindin D,Calbindin D; 1 μg/mL,−1.6%
same,% Change of Biomarkers markers (with respect to Control) Dopamine,Dopamine; 0.001 μg/mL,50.6%
same,% Change of Biomarkers markers (with respect to Control) Dopamine,Dopamine; 0.01 μg/mL,82.5%
same,% Change of Biomarkers markers (with respect to Control) Dopamine,Dopamine; 0.05 μg/mL,24.7%
same,% Change of Biomarkers markers (with respect to Control) Dopamine,Dopamine; 0.1 μg/mL,28.9%
same,% Change of Biomarkers markers (with respect to Control) Dopamine,Dopamine; 1 μg/mL,22.9%
same,% Change of Biomarkers markers (with respect to Control) Serotonin,Serotonin; 0.001 μg/mL,15.4%
same,% Change of Biomarkers markers (with respect to Control) Serotonin,Serotonin; 0.01 μg/mL,5.1%
same,% Change of Biomarkers markers (with respect to Control) Serotonin,Serotonin; 0.05 μg/mL,6.9%
same,% Change of Biomarkers markers (with respect to Control) Serotonin,Serotonin; 0.1 μg/mL,7.9%
same,% Change of Biomarkers markers (with respect to Control) Serotonin,Serotonin; 1 μg/mL,23.5%
same,% Change of Biomarkers markers (with respect to Control) ICAM1/CD54,ICAM1/CD54; 0.001 μg/mL,0%
same,% Change of Biomarkers markers (with respect to Control) ICAM1/CD54,ICAM1/CD54; 0.01 μg/mL,−6.2%
same,% Change of Biomarkers markers (with respect to Control) ICAM1/CD54,ICAM1/CD54; 0.05 μg/mL,−28.1%
same,% Change of Biomarkers markers (with respect to Control) ICAM1/CD54,ICAM1/CD54; 0.1 μg/mL,−36.3%
same,% Change of Biomarkers markers (with respect to Control) ICAM1/CD54,ICAM1/CD54; 1 μg/mL,−41.3%
same,modulation of α-Synuclein,α-Synuclein,no significant modulation
same,level of NGF (brain),"[1]; 0.25 mg/kg, scopolamine treated mice",62 µg/mL
same,brain nerve growth factor (NGF) Mean,[1]; G4: 0.5 mg/kg i.v. qdx14,71.6 pg/mL and 71.59 pg/mL
same,brain nerve growth factor (NGF) Mean,[1]; G5: 0.25 mg/kg i.v. qdx14,61.96 pg/mL
same,brain nerve growth factor (NGF) Mean,[1]; G6: 0.125 mg/kg i.v. qdx14,38.62 pg/mL
